The text below walks through data of patent US10954305B2 (Immunomedics, Inc., priority 2016, dated 2021).

One data set concerns the target T1, recombinant mouse Trop-2 (Mus musculus, UniProt Q8BGV3).
T1 construct: purchased Sino Biological, Inc. 50922-MO8H
T1 sequence (Q8BGV3 25-317): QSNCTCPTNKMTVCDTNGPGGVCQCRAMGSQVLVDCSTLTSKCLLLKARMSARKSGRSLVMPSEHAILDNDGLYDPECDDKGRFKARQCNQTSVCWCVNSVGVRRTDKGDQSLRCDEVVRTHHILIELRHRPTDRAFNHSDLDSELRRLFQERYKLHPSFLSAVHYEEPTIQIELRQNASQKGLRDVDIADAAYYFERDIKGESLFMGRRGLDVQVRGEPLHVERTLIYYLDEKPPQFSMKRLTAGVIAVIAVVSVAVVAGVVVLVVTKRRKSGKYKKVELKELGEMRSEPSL
In words: Trop-2 ELISA. The format is binding. On the procedure:
(§1) Recombinant human Trop-2 with a His-tag (Sino Biological, Inc., Bejing, China; Cat #10428-H09H) and recombinant mouse Trop-2 with a His-Tag (Sino Biological, Inc., Cat #50922-MO8H) were plated onto Ni-NTA Hissorb strips (Qiagen GmbH Cat #35023) at 1 μg for 1 h at room temperature. The plate was washed four times with PBS-Tween (0.05%) wash buffer. Serial dilutions of hRS7 were made in 1% BSA-PBS dilution buffer to a test range of 0.1 ng/mL to 10 μg/mL. The plates were then incubated for 2 h at room temperature before being washed four times followed by the addition of a peroxidase conjugated secondary antibody (goat anti-human, Fc fragment specific; Jackson Immunoresearch Cat #109-036-098). After a 45-min incubation, the plate was washed and a substrate solution (o-phenylenediamine dihydrochloride (OPD); Sigma, Cat #P828) added to all the wells. Plates were incubated in the dark for 15 min before the reaction was stopped with 4N sulfuric acid. The plates were read at 450 nm on Biotek ELX808 plate reader. Data were analyzed and graphed using Prism GraphPad Software (v4.03) (Advanced Graphics Software, Inc.; Encinitas, Calif.).

For another data set, the target named is T2, recombinant human Trop-2 (Homo sapiens, UniProt P09758).
T2 construct: purchased Sino Biological, Inc. 10428-H09H
T2 sequence (P09758 27-323): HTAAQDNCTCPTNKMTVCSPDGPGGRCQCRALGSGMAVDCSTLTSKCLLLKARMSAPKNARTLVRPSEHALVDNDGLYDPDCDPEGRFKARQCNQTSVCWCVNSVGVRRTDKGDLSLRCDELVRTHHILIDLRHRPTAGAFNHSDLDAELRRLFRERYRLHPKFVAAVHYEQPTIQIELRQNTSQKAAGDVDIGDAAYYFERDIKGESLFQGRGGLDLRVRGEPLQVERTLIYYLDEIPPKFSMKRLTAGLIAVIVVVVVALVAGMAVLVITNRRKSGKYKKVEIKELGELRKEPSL
The data set is described as follows: Trop-2 ELISA. It is filed as binding. On the procedure: as §1
On the technique in general: In an ELISA, binding on a coated surface is turned into a signal by an enzyme label.

In a further data set the test system is p21^Waf1/Cip1 in Calu-3. The data set is described as follows: p21Waf1/Cip1 expression. It is filed as cell-based, human. An excerpt: SN-38 is known to activate several signaling pathways in cells, leading to apoptosis (e.g., Cusack et al., 2001, Cancer Res 61:3535-40; Liu et al. 2009, Cancer Lett 274:47-53; Lagadec et al., 2008, Br J Cancer 98:335-44). Our initial studies examined the expression of 2 proteins involved in early signaling events (p21^Waf1/Cip1 and p53) and 1 late apoptotic event [cleavage of poly-ADP-ribose polymerase (PARP)] in vitro (not shown).

Data set [1] can be described thus: Phase I/II clinical trial of IMMU-132, adverse events. It is filed as in vivo, human. Conditions: for dose-limiting toxicity: Phase I. An excerpt:
The maximum tolerated dose (MTD) was judged on the patient's tolerance to the first treatment cycle.

Data set [2] concerns triple-negative breast cancer. Conditions: 58 evaluable mTNBC patients, RECIST1.1 (Bardia et al.); cited from earlier work.
For the next data set, the system named is HCC1806 (Trop-2+). The data set is described as follows: dsDNA breaks, rH2AX flow cytometry. It is filed as cell-based, human. Conditions: untreated baseline 168. A general note: A flow cytometer gives signals particle by particle.

Experimental for HCC1806 (Trop-2+): For drug activity testing, HCC1806 and HCC1395 TNBC cell lines cells were seeded in 6-well plates at 5×10^5 cells/well and held at 37° C. overnight. […] The signal intensity of rH2AX was measured by flow cytometry using a BD FACSCalibur (BD Biosciences, San Jose, Calif.).
The cells were then washed to remove unbound conjugate, and then incubated overnight at 37° C.

On to hRS7 IgG, for which the cross-reactivity entry with recombinant mouse Trop-2 is recorded as “no cross-reactivity with the murine Trop-2”. In addition, the dissociation constant (Kd) (as a rule, the constant that tells how readily two partners part at equilibrium) with recombinant human Trop-2 came out at 0.3 nM.
IMMU-132: in the data set with p21^Waf1/Cip1 in Calu-3, the “p21^Waf1/CiP1 expression over free SN-38” value is “more than 2 fold”. In data set [1] (10 mg/kg), the “grade-3 diarrhea, patients” value stood at 1. Also, the “Dose-limiting toxicity 1st cycle, patients” value in data set [1] (18 mg/kg, 3 treated) turned out to be 2. Further, the “neutropenia >Grade 3” value in data set [1] (49 patients reporting related AE) is 28%. The “incidence of Grade 3 or higher adverse events other than neutropenia” value in data set [1] (261 patients enrolled) is listed as “less than 10%”. Moreover, in data set [1] (N = 47), the “Abdominal pain, Grade 3, n (%)” value is given as 0; the “Abdominal pain, Grade 4, n (%)” value was 0; the “Anemia, Grade 3, n (%)” value is given as 2 (4%); the “Anemia, Grade 4, n (%)” value is 0. Moreover, in data set [1] (N = 47), the “Deep vein thrombosis, Grade 3, n (%)” value is listed as 1 (2%); the “Deep vein thrombosis, Grade 4, n (%)” value is reported as 0; the “Diarrhea, Grade 3, n (%)” value is 4 (9%); the “Diarrhea, Grade 4, n (%)” value turned out to be 0. Also, in data set [1] (N = 47), the “Dysgeusia, Grade 3, n (%)” value is reported as 0; the “Dysgeusia, Grade 4, n (%)” value was 0; the “Fatigue, Grade 3, n (%)” value is 4 (9%); the “Fatigue, Grade 4, n (%)” value worked out at 0. In data set [1] (N = 47), the “Febrile Neutropenia, Grade 3, n (%)” value was 1 (2%); the “Febrile Neutropenia, Grade 4, n (%)” value is 2 (4%); the “Hypokalemia, Grade 3, n (%)” value is given as 1 (2%); the “Hypokalemia, Grade 4, n (%)” value was 0. In addition, in data set [1] (N = 47), the “Nausea, Grade 3, n (%)” value was 0; the “Nausea, Grade 4, n (%)” value is recorded as 0; the “Neutropenia, Grade 3, n (%)” value is given as 11 (24%); the “Neutropenia, Grade 4, n (%)” value was 2 (4%). For the same substance, in data set [1] (N = 47), the “Pyrexia, Grade 3, n (%)” value is reported as 0; the “Pyrexia, Grade 4, n (%)” value is 0; the “Vomiting, Grade 3, n (%)” value is given as 1 (2%); the “Vomiting, Grade 4, n (%)” value worked out at 0. For the same substance, in data set [1] (N = 47), the “WBC Decrease, Grade 3, n (%)” value is reported as 1 (2%) and the “WBC Decrease, Grade 4, n (%)” value was determined as 0. Further, the dose-limiting toxicity result in data set [1] was “neutropenia”. The dose-limiting toxicity result in data set [1] (listed as sacituzumab govitecan) is recorded as “Neutropenia”. In data set [2], the “interim objective response rate” value was 31%. Further, the “Median fluorescence intensity (rH2AX)” value with HCC1806 (Trop-2+) is on record as 546.
